In patent publication US20210253679A1 (NATIONAL RESEARCH COUNCIL OF CANADA, published 2021):
Numbering of substitutions follows the chain as printed.

B1: Rh34 sdAb (VHH)
VHH: QVKLEESGGGLVQAGGSLRLSCAASGRTISLYAVGWFRRAPGKEREFVAAISWTDSSTYYADSVKGRFTISRDNAKNTVYLGMNSLNPEDTAVYYCAADVSIRGLQKYEYDYWGQGTQVTVSS
notes: also called Rh34 VHH
B2: M79 sdAb (VHH)
VHH: QVKLEESGGGLVQAGGSLKLSCAASGSTFSSSSVGWYRQAPGQQRELVAAITSGGSTNTADSVKGRFTMSRDNAKNTVYLQMRDLKPEDTAVYYCNVAGRNWVPISRYSPGPYWGQGTQVTVSS
notes: also called M79 VHH
B3: R11 sdAb (VHH)
VHH: QVKLEESGGGLVQAGGSLRLSCVGPGFLLRSNTMGWYRQAPGKERELVAFIRPSGLTNYNDAVQGRFTISRDNAKNTVYLQMNALKPEDTAVYYCHTRPPFQRDSWGQGTQVTVSS
notes: also called R11 VHH
B4: R28 sdAb (VHH)
VHH: QVQLVESGGGLVQAGGSLRLSCVASGRTFIAYAMGWFRQAPGKEREFVAAITNFAGGTTYYADSVKGRFTISRDNAKTTVYLQMNSLKPEDTALYYCAADRSAQTMRQVRPVLPYWGQGTQVTVSS
notes: also called R28 VHH
B5: H18 sdAb (VHH)
VHH: QVQLVESGGGLVQAGGSLRLSCTASGSIESINRMAWYRQAPGQQREFVARISKGGSTNYPDSVKGRFTISRDNAKNTVYLQMNSLKPEDTAVYYCAAGPVWEQFWGQGTQVTVSS
notes: also called H18 VHH
B6: Rh46 sdAb (VHH)
VHH: QVKLEESGGGLVQAGGSLRLSCTASTRTFSSYIMGWFRQAPGKERELVAAISWSGRMTHYADSVKGRFAISRDNAKNTVYLQMNVLKPEDTAIYSCAADRTTAWGAPRSQYDSWGQGTQVTVSS
notes: also called Rh46 VHH
B7: M79-H4 (VHH)
VHH: QVQLVESGGGLVQPGGSLRLSCAASGSTFSSSSVGWYRQAPGQQRELVAAITSGGSTNTADSVKGRFTISRDNSKNTLYLQMNSLRAEDTAVYYCNVAGRNWVPISRYSPGPYWGQGTLVTVSS
B8: M79-H2 (VHH)
VHH: B7 VHH with Q1E, Q43K, Q44G, R45L, A49S
B9: M79-H3 (VHH)
VHH: B7 VHH with Q1E, Q43K, A49S
B10: M79-H5 (VHH)
VHH: B7 VHH with S74A, L78V
B11: R28-H5 (VHH)
VHH: B4 VHH with A14P, V23A, K88R, P89A, L94V, Q121L
B12: R28-H4 (VHH)
VHH: B4 VHH with A14P, V23A, V80L, K88R, P89A, L94V, Q121L
B13: R28-H3 (VHH)
VHH: B4 VHH with A14P, V23A, A76S, T78N, V80L, K88R, P89A, L94V, Q121L
B14: R28-H1 (VHH)
VHH: EVQLVESGGGLVQPGGSLRLSCAASGRTFIAYAMGWFRQAPGKGLEFVSAITNFAGGTTYYADSVKGRFTISRDNSKNTLYLQMNSLRAEDTAVYYCAADRSAQTMRQVRPVLPYWGQGTLVTVSS
B15: B39-M75 (bispecific antibody, not shown: small tags and cut ends)
chain: QVQLVESGGGLVQAGGSLRLSCAASGLTFSRYVMGWFRQAPGKEREFVAAITWGGTPNYADSVKGRFTISRDNSKNTQYLQMNSLKPEDTAVYYCAAGLGWDSRYSQSYNYWGQGTQVTVSSGGGGSGGGGSGGGGSGGGGSGGGGSQVQLVESGGGFVQAGGSLRLSCAASGRTFDNYVMAWFRQAPGKEREFVASISGSGSITNYANSVKDRFTISRDSAKNAIYLQMNSLKPEDTALYYCAAGSRRTYYREPKFYPSWGQGTQVTVSS
B16: B39-R28 (bispecific antibody, not shown: small tags and cut ends)
chain: QVQLVESGGGLVQAGGSLRLSCAASGLTFSRYVMGWFRQAPGKEREFVAAITWGGTPNYADSVKGRFTISRDNSKNTQYLQMNSLKPEDTAVYYCAAGLGWDSRYSQSYNYWGQGTQVTVSSGGGGSGGGGSGGGGSGGGGSGGGGSQVQLVESGGGLVQAGGSLRLSCVASGRTFIAYAMGWFRQAPGKEREFVAAITNFAGGTTYYADSVKGRFTISRDNAKTTVYLQMNSLKPEDTALYYCAADRSAQTMRQVRPVLPYWGQGTQVTVSS
B17: B39 (VHH, not shown: small tags and cut ends)
VHH: QVQLVESGGGLVQAGGSLRLSCAASGLTFSRYVMGWFRQAPGKEREFVAAITWGGTPNYADSVKGRFTISRDNSKNTQYLQMNSLKPEDTAVYYCAAGLGWDSRYSQSYNYWGQGTQVTVSS
notes: also called B39-HA-His6; B39 control
B18: B39-R11 (bispecific antibody, not shown: small tags and cut ends)
chain: QVQLVESGGGLVQAGGSLRLSCAASGLTFSRYVMGWFRQAPGKEREFVAAITWGGTPNYADSVKGRFTISRDNSKNTQYLQMNSLKPEDTAVYYCAAGLGWDSRYSQSYNYWGQGTQVTVSSGGGGSGGGGSGGGGSGGGGSGGGGSQVKLEESGGGLVQAGGSLRLSCVGPGFLLRSNTMGWYRQAPGKERELVAFIRPSGLTNYNDAVQGRFTISRDNAKNTVYLQMNALKPEDTAVYYCHTRPPFQRDSWGQGTQVTVSS
B19: B39-M79 (bispecific antibody, not shown: small tags and cut ends)
chain: QVQLVESGGGLVQAGGSLRLSCAASGLTFSRYVMGWFRQAPGKEREFVAAITWGGTPNYADSVKGRFTISRDNSKNTQYLQMNSLKPEDTAVYYCAAGLGWDSRYSQSYNYWGQGTQVTVSSGGGGSGGGGSGGGGSGGGGSGGGGSQVKLEESGGGLVQAGGSLKLSCAASGSTFSSSSVGWYRQAPGQQRELVAAITSGGSTNTADSVKGRFTMSRDNAKNTVYLQMRDLKPEDTAVYYCNVAGRNWVPISRYSPGPYWGQGTQVTVSS

Target: T1, rhesus serum albumin (rhesus, UniProt Q28522 17-600)
T1 construct: also called RhSA
Assay: SPR, single cycle kinetics, pH 7.4

Row | Binder | Kd
1 | B1 | 333 nM
2 | B2 | 85 nM
3 | B3 | 159 nM
4 | B4 | 38 nM
5 | B5 | 48 nM
6 | B6 | 81 nM

Target: T2, rat serum albumin (rat, UniProt P02770 25-608)
T2 construct: also called RSA
Assay: SPR, single cycle kinetics, pH 7.4

Row | Binder | Kd
7 | B2 | 13 nM
8 | B3 | 61.7 nM
9 | B4 | 0.4 nM

Target: T3, human serum albumin (human, UniProt P02768 25-609)
T3 construct: also called HSA
Assay: SPR, single cycle kinetics, pH 7.4

Row | Binder | Kd
10 | B1 | 286 nM
11 | B2 | 122 nM
12 | B3 | 93 nM
13 | B4 | 12 nM
14 | B5 | 34 nM
15 | B6 | 80 nM

Target: T4, mouse serum albumin (mouse, UniProt P07724 25-608)
T4 construct: also called MSA
Assay: SPR, single cycle kinetics, pH 7.4

T4 sequence (P07724 25-608 limits assumed): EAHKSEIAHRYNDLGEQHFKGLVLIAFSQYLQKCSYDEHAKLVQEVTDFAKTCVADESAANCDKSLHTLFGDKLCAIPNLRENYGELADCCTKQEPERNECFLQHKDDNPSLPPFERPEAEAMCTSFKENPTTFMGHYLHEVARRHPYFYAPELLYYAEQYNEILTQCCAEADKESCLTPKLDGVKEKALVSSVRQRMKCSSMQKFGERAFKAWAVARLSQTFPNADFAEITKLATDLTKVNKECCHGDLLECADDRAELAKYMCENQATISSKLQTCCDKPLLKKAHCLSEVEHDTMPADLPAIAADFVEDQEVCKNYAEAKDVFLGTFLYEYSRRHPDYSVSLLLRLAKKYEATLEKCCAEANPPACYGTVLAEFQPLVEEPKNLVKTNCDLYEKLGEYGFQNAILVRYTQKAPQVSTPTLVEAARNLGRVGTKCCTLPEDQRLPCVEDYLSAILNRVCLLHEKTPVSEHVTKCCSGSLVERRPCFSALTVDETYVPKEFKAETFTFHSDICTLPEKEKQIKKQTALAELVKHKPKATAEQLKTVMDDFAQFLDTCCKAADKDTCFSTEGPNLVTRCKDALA

Row | Binder | Kd
16 | B4 | 160 nM

Target: T1, rhesus serum albumin
Assay: SPR, single cycle kinetics, pH 7.4
Remark: another data set of the same source

Row | Binder | Kd
17 | B1 | 333 nM
18 | B7 | 38.7 nM
19 | B8 | 62.1 nM
20 | B9 | 36.7 nM
21 | B10 | 86.5 nM
22 | B2 | 84.6 nM
23 | B3 | 159 nM
24 | B4 | 38.2 nM
25 | B11 | 145 nM
26 | B12 | 1740 nM
27 | B13 | 625 nM
28 | B14 | 2710 nM
29 | B5 | 47.6 nM
30 | B6 | 80.8 nM

Target: T2, rat serum albumin
Assay: SPR, single cycle kinetics, pH 7.4
Remark: another data set of the same source

Row | Binder | binding result | Kd
31 | B1 | no binding | –
32 | B7 | – | 10 nM
33 | B8 | – | 10.4 nM
34 | B9 | – | 8.7 nM
35 | B10 | – | 20.2 nM
36 | B2 | – | 12.6 nM
37 | B3 | – | 61.7 nM
38 | B4 | – | 0.4 nM
39 | B11 | – | 0.4 nM
40 | B12 | – | 1.1 nM
41 | B13 | – | 2.4 nM
42 | B14 | – | 5.3 nM
43 | B5 | no binding | –
44 | B6 | no binding | –

Target: T3, human serum albumin
Assay: SPR, single cycle kinetics, pH 7.4
Remark: another data set of the same source

Row | Binder | Kd
45 | B1 | 286 nM
46 | B7 | 58.9 nM
47 | B8 | 76.2 nM
48 | B9 | 53.3 nM
49 | B10 | 103 nM
50 | B2 | 122 nM
51 | B3 | 93.1 nM
52 | B4 | 12.1 nM
53 | B11 | 11.1 nM
54 | B12 | 11.5 nM
55 | B13 | 51.3 nM
56 | B14 | 162 nM
57 | B5 | 33.9 nM
58 | B6 | 80.1 nM

Target: T1, rhesus serum albumin
Assay: SPR, single cycle kinetics, pH 5.5

Row | Binder | Kd
59 | B1 | 167 nM
60 | B2 | 2 nM
61 | B3 | 116 nM
62 | B4 | 6 nM
63 | B5 | 42 nM
64 | B6 | 30 nM

Target: T2, rat serum albumin
Assay: SPR, single cycle kinetics, pH 5.5

Row | Binder | Kd
65 | B2 | 7 nM
66 | B3 | 30 nM
67 | B4 | 0.3 nM

Target: T3, human serum albumin
Assay: SPR, single cycle kinetics, pH 5.5

Row | Binder | Kd
68 | B1 | 129 nM
69 | B2 | 7 nM
70 | B3 | 29 nM
71 | B4 | 1.8 nM
72 | B5 | 46 nM
73 | B6 | 41 nM

Target: T4, mouse serum albumin
Assay: ITC, pH 7.4

Row | Binder | Kd
74 | B2 | 406 nM
75 | B3 | 14 nM

Target: T3, human serum albumin
Assay: SPR, single-concentration injection over an HSA surface

Row | Binder | binding result
76 | B15 | binds
77 | B16 | binds
78 | B17 | no binding (tested: not printed (single concentration))
79 | B18 | binds
80 | B19 | binds

Target: T1, rhesus serum albumin
Assay: SPR, single cycle kinetics, pH 5.5
Remark: another data set of the same source

Row | Binder | Kd
81 | B1 | 167 nM
82 | B7 | 2.9 nM
83 | B8 | 2.6 nM
84 | B9 | 2.9 nM
85 | B10 | 4.2 nM
86 | B2 | 2 nM
87 | B3 | 116 nM
88 | B4 | 5.9 nM
89 | B11 | 7.3 nM
90 | B12 | 341 nM
91 | B13 | 1270 nM
92 | B14 | 28.7 nM
93 | B5 | 42.2 nM
94 | B6 | 29.6 nM

Target: T2, rat serum albumin
Assay: SPR, single cycle kinetics, pH 5.5
Remark: another data set of the same source

Row | Binder | Kd
95 | B7 | 8.8 nM
96 | B8 | 5.9 nM
97 | B9 | 12.2 nM
98 | B10 | 6.6 nM
99 | B2 | 7.1 nM
100 | B3 | 29.9 nM
101 | B4 | 0.3 nM
102 | B11 | 3.5 nM
103 | B12 | 5.3 nM
104 | B13 | 1.8 nM
105 | B14 | 6.5 nM

Target: T3, human serum albumin
Assay: SPR, single cycle kinetics, pH 5.5
Remark: another data set of the same source

Row | Binder | Kd
106 | B1 | 129 nM
107 | B7 | 8.4 nM
108 | B8 | 6.5 nM
109 | B9 | 9.6 nM
110 | B10 | 8.1 nM
111 | B2 | 7.1 nM
112 | B3 | 28.9 nM
113 | B4 | 1.8 nM
114 | B11 | 2 nM
115 | B12 | 51.6 nM
116 | B13 | 47.2 nM
117 | B14 | 15.2 nM
118 | B5 | 46.2 nM
119 | B6 | 41.3 nM
